According to publication PMC5045189 (2016):

Target: T1, Staphylococcus aureus manganese transporter protein MntC, wild type, recombinant (Staphylococcus aureus, UniProt W8TNQ9 1-309)
T1 chain: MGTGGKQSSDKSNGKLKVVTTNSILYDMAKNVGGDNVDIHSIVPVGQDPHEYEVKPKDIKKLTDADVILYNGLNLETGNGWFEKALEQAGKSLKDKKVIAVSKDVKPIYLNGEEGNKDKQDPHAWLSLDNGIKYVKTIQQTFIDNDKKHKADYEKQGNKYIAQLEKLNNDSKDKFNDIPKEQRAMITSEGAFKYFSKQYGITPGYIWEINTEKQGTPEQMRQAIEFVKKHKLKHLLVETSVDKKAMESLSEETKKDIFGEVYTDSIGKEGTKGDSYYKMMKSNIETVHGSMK
Assay: ELISA

B1: monoclonal antibody mAB 305-78-7 (intact antibody, interference group 2) (antibody, V domains shown)
VH: QVQLQQSGAELARPGASVKMSCKASGYTFTRYTMHWVQQRPGQGLEWIGYINPSSDYTKYNQKFKDKATMTADKSSSTAYMQLSSLTSEDSAVYYCARKEDVGYWYFDFWGTGTTVTVSS
VL: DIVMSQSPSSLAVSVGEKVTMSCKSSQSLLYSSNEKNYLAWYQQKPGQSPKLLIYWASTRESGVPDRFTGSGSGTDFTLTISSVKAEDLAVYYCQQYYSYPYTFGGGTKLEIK
Binder B1 has a Kd of 1.3 nM.
